# Tests used:
# [1] = target: HLA-B*08:01; experiment: IEDB peptide-MHC binding, purified MHC/competitive/radioactivity; filed as Kd, often an IC50 or EC50 that approximates it; ≥ and ≤ were set here for values at or beyond the usual limits of such assays
# [2] = target: HLA-A*30:02; experiment: as above; conditions: source organism: Dengue virus 2 Jamaica/1409/1983
# [3] = target: HLA-A*02:02; experiment: as above
# [4] = target: HLA-A*02:06; experiment: as above
# [5] = target: HLA-A*02:03; experiment: as above
# [6] = target: HLA-A*30:01; experiment: as above
# [7] = target: HLA-A*24:02; experiment: as above
# [8] = target: HLA-A*23:01; experiment: as above
# [9] = target: HLA-A*02:01; experiment: IEDB peptide-MHC binding, purified MHC/direct/fluorescence; filed as Kd, often an IC50 or EC50 that approximates it; ≥ and ≤ were set here for values at or beyond the usual limits of such assays
# [10] = target: HLA-A*69:01; experiment: as above
# [11] = target: HLA-A*02:01; experiment: IEDB peptide-MHC binding, purified MHC/competitive/fluorescence; ≥ and ≤ were set here for values at or beyond the usual limits of such assays
# [12] = target: HLA-A*01:01; experiment: IEDB peptide-MHC binding, purified MHC/competitive/radioactivity; filed as Kd, often an IC50 or EC50 that approximates it; ≥ and ≤ were set here for values at or beyond the usual limits of such assays
# [13] = source organism: Vaccinia virus WR
# [14] = source organism: Dengue virus 3 Martinique/1243/1999
# [15] = source organism: Dengue virus 4 Philippines/H241/1956
# [16] = source organism: Francisella tularensis subsp. tularensis FSC198
# [17] = source organism: Dengue virus 2 Jamaica/1409/1983
# [18] = source organism: SARS coronavirus Tor2
# [19] = source organism: Dengue virus 1 Brazil/97-11/1997
# [20] = source organism: Mammarenavirus guanaritoense
# [21] = source organism: Vibrio alginolyticus 12G01
sequence,measurement,setting,value
RRFRRPMSL,Kd,[1]; [13],111 nM
RTPQDNQLTY,Kd,[2],1.02 nM
RTWKVLSIM,Kd,[3]; [13],19100 nM
same,Kd,[4]; [13],≥ 34000 nM
same,Kd,[5]; [13],2630 nM
RTYSSSIIA,Kd,[6]; [13],49.8 nM
RVLYDEFVT,Kd,[3]; [13],2170 nM
same,Kd,[4]; [13],1720 nM
same,Kd,[5]; [13],1410 nM
RYLEFEALGF,Kd,[7]; [14],38.1 nM
same,Kd,[8]; [14],4.68 nM
RYLRDQQLL,Kd,[7]; source organism: HIV-1 M:B_ARV2/SF2,30 nM
RYRSGFWII,Kd,[6]; [13],8.74 nM
SAKYINSSI,Kd,[1]; [13],137 nM
SALMTLDDLA,Kd,[3]; [13],210 nM
same,Kd,[4]; [13],193 nM
same,Kd,[5]; [13],2320 nM
SALYSYASA,Kd,[6]; [13],36.7 nM
SGALWDVPSP,Kd,[6]; [15],11000 nM
SILEYAKSI,Kd,[9]; [16],102 nM
same,Kd,[10]; [16],107 nM
SISIKLTDS,IC50,[11]; source organism: Vaccinia virus Copenhagen,≥ 107000 nM
SITEAELTGY,Kd,[12]; [17],391 nM
SLLRNDVPM,Kd,[1]; [14],47.5 nM
SLNTKFKTL,Kd,[1]; [13],8.68 nM
SLPSYAAYA,Kd,[3]; [18],6.68 nM
same,Kd,[4]; [18],8.72 nM
same,Kd,[5]; [18],2.56 nM
SMFMSLLPA,Kd,[1]; [13],55.5 nM
SMSQELAEL,Kd,[3]; [13],3.98 nM
same,Kd,[4]; [13],186 nM
same,Kd,[5]; [13],7.66 nM
SPKRLATAI,Kd,[1]; [14],14.1 nM
SSAMVQVHS,IC50,[11]; source organism: Zaire ebolavirus,≥ 595000 nM
STKADAVVA,Kd,[3]; [13],8190 nM
same,Kd,[4]; [13],16200 nM
same,Kd,[5]; [13],4950 nM
SVKINFEFV,Kd,[1]; [13],105 nM
SVKYYGRST,Kd,[3]; [13],6790 nM
same,Kd,[4]; [13],19400 nM
same,Kd,[5]; [13],1160 nM
SVYIRPTSL,Kd,[1]; [13],10.7 nM
SYKVASAGI,Kd,[7]; [15],105 nM
TAQEQHNAA,IC50,[11]; source organism: Sudan ebolavirus,27500 nM
TFKMRPMFA,Kd,[6]; [19],23.1 nM
TFKNAHAKK,Kd,[6]; [14],111 nM
TISWMMKLGI,Kd,[3]; [13],7840 nM
same,Kd,[4]; [13],2780 nM
same,Kd,[5]; [13],972 nM
TLGRNKRPRL,Kd,[1]; source organism: Dengue virus 3 Sri Lanka/1266/2000,395 nM
TLNTLITLIL,Kd,[3]; [13],150 nM
same,Kd,[4]; [13],826 nM
same,Kd,[5]; [13],7.09 nM
TLVDLCFWS,Kd,[3]; [20],57.9 nM
same,Kd,[4]; [20],134 nM
same,Kd,[5]; [20],523 nM
TMGVLCLAIL,Kd,[1]; [14],6430 nM
TTNNLLEQL,Kd,[3]; [13],122 nM
same,Kd,[4]; [13],3040 nM
same,Kd,[5]; [13],1420 nM
TVGMLIYSM,Kd,[3]; [13],490 nM
same,Kd,[4]; [13],9170 nM
same,Kd,[5]; [13],6090 nM
TVRDGQLEV,Kd,[6]; [13],12.8 nM
TWKLARASF,Kd,[7]; [19],224 nM
same,Kd,[8]; [19],218 nM
VDRKGKVVGL,Kd,[1]; [17],6320 nM
VLEKKVCAI,Kd,[3]; [13],14400 nM
same,Kd,[4]; [13],3390 nM
same,Kd,[5]; [13],2310 nM
VLLNAPSEA,IC50,[11]; source organism: Human alphaherpesvirus 1 strain 17,19 nM
VLLPFYETL,Kd,[3]; [13],4060 nM
same,Kd,[4]; [13],218 nM
same,Kd,[5]; [13],267 nM
VLVHPQWVL,IC50,[11]; source organism: Homo sapiens,2080 nM
VMKIGIGVLL,Kd,[1]; [14],516 nM
VMKRYSAPFE,Kd,[6]; [15],5920 nM
VQLSNNKYVL,Kd,[3]; [13],288 nM
same,Kd,[4]; [13],170 nM
same,Kd,[5]; [13],9490 nM
VTEKDSPVNI,Kd,[12]; [17],≥ 40900 nM
VTFINDYANL,Kd,[3]; [13],99.1 nM
same,Kd,[4]; [13],148 nM
same,Kd,[5]; [13],247 nM
VTKSSSWKDV,Kd,[3]; [13],≥ 70000 nM
same,Kd,[4]; [13],≥ 69800 nM
same,Kd,[5]; [13],≥ 41900 nM
VVRGIDGGV,Kd,[9]; [21],≥ 20000 nM
same,Kd,[10]; [21],≥ 20000 nM
VWEVEDYGF,Kd,[8]; [14],296 nM
VYPMSIPATL,Kd,[7]; [19],78.1 nM
same,Kd,[8]; [19],6.39 nM
WFVERNMVI,Kd,[8]; [14],340 nM
WMDLLRALI,Kd,[12]; [15],9950 nM
WTMKIGIGIL,Kd,[1]; [19],342 nM
YKKLKFRFI,Kd,[1]; [13],196 nM
YLSGTDDEVI,Kd,[3]; [13],6.26 nM
same,Kd,[4]; [13],947 nM
same,Kd,[5]; [13],211 nM
YLYNKYSFKL,Kd,[3]; [13],0.109 nM
same,Kd,[4]; [13],0.14 nM
same,Kd,[5]; [13],0.0349 nM
YSHGDIKAS,IC50,[11]; [13],≥ 72000 nM
